Molecular target: A3B 193 CTD (human) (UniProt Q9UH17)
Assay: SEC

With “A3B 193 CTD (from UniProt Q9UH17 193-382) (domain or fragment)” the stoichiometry N was 2.

From article PMC5714209
